# Measurements as given in patent publication US20020155533A1 (Takeda / Millennium, published 2002).
# “And” between values parts separate entries of the source, which are not always exact repeats. Equal entries are not always repeated. Where no end group is shown, it is not given here.
# B1: [^125I]-PACAP27 (peptide)
# peptide: HSDGIFTDSYSRYRKQMAVKKYLAAVL-NH2
# modifications: also: 125I label on one Tyr, which one not given here
# notes: also called radioactive iodine-labelled PACAP27
# B2: PACAP27 (peptide)
# peptide: HSDGIFTDSYSRYRKQMAVKKYLAAVL-NH2
# notes: also called unlabeled PACAP27; cold PACAP27
# Assays:
# [1] = target: bovine PACAP receptor protein from bovine cerebrum (bovine) (UniProt Q29627); experiment: radioligand
# [2] = target: bovine PACAP receptor protein from bovine cerebrum (bovine) (UniProt Q29627); experiment: saturation binding experiment; fraction: Gel filtration (final purified sample)
# [3] = target: bovine PACAP receptor protein from bovine cerebrum (bovine) (UniProt Q29627); experiment: saturation binding experiment; fraction: Micro hydroxyapatite
# [4] = target: T1, rat PACAP receptor protein Type I-A (pRPR3-A, derived from pRPACAPR46-5), expressed in CHO or Sf9 cells (rat, UniProt P32215 20-523); experiment: 100 pM [125I]-PACAP27 on whole CHO cells, gamma counting (FIG. 39)
# T1 construct: also called pRPR3-A-introduced CHO cells; clone A12
# T1 sequence: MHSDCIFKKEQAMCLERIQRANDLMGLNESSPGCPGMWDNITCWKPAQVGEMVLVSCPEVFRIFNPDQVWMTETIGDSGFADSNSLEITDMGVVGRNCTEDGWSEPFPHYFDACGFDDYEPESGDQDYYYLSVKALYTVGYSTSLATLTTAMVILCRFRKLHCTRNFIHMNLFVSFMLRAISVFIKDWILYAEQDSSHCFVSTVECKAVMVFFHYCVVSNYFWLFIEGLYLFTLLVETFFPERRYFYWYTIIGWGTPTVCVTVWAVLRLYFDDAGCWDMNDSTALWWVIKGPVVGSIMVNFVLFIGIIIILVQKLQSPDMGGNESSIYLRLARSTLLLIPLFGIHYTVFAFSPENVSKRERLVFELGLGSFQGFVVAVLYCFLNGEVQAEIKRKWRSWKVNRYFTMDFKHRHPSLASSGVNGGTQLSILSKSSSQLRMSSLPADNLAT
# Experimental: (§2) The cells were incubated until they covered the bottom surface of the tissue culture plates completely. […] The cells were washed twice with a buffer for the binding experiment [Hank's solution (pH 7.4) containing 5 mM HEPES, 5% CRAPS and 0.1% BSA]. […] After incubation at 37° C. for 1 hour, the cells washed three times with the buffer for the binding experiment were dissolved with 1 ml of 0.5 N NaOH and 0.1% SDS for each well, and the radioactivity contained therein was measured with a γ-counter.
# [5] = target: T2, rat PACAP receptor protein Type I-B (pRPR4-B, derived from pRPACAPR12), expressed in CHO or Sf9 cells (rat, UniProt P32215 20-523); experiment: as above
# T2 construct: also called pRPR4-B-introduced CHO cells; clone B17
# T2 sequence: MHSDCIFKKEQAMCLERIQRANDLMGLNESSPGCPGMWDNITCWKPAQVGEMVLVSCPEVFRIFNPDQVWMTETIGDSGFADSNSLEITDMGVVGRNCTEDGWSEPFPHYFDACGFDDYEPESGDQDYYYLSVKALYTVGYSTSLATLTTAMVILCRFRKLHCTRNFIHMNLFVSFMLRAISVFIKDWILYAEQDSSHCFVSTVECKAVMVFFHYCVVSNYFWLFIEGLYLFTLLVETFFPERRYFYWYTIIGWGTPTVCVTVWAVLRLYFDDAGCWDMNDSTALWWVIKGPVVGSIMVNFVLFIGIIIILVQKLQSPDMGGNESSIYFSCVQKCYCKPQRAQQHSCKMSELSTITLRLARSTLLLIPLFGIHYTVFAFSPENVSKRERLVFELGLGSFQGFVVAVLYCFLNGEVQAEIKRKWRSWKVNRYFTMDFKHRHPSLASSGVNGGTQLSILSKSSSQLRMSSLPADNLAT
# Experimental: as §2
# [6] = target: bovine PACAP receptor protein from bovine cerebrum (bovine) (UniProt Q29627); experiment: saturation binding experiment; fraction: Ion exchange
# [7] = target: bovine PACAP receptor protein from bovine cerebrum (bovine) (UniProt Q29627); experiment: saturation binding experiment; fraction: Hydroxyapatite
# [8] = target: bovine PACAP receptor protein from bovine cerebrum (bovine) (UniProt Q29627); experiment: saturation binding experiment; fraction: Membrane fraction
# [9] = target: bovine PACAP receptor protein from bovine cerebrum (bovine) (UniProt Q29627); experiment: saturation binding experiment; fraction: Avidin-agarose
# [10] = target: T3, bovine PACAP receptor protein Type I-A encoded by pBPR-T, expressed in CHO cells (UniProt Q29627 38-513); experiment: radioligand
# T3 chain: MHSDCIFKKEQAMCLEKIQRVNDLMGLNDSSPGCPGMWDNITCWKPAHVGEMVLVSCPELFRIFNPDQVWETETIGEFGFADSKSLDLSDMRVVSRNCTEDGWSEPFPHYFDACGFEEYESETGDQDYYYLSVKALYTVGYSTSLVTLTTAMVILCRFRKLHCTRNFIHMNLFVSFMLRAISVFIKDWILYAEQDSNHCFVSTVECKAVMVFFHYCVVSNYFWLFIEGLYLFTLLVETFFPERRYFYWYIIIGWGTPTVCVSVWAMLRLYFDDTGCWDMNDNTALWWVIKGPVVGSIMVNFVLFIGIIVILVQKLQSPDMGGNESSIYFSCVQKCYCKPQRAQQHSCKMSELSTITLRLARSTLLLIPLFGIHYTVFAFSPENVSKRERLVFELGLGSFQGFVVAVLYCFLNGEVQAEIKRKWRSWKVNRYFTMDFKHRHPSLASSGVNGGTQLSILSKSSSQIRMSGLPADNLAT
# [11] = target: bovine PACAP receptor protein from bovine cerebrum (bovine) (UniProt Q29627); experiment: saturation binding experiment; fraction: Solubilized product
# [12] = target: T1, rat PACAP receptor protein Type I-A …; experiment: competition with 100 pM [125I]-PACAP27, membrane fraction of pRPR3-A-introduced CHO cells (FIG. 40A)
# Experimental: (§1) The pRPR3-A-introduced and pRPR4-B-introduced CHO cells obtained in (2) described above were each disrupted in sodium carbonate buffer containing 1 mM EDTA, 0.5 mM PMSF, 20 μg/ml leupeptin, 4 μg/ml E-64 and 1 μg/ml pepstatin with a Polytron homogenizer (Kinematica) to prepare membrane fractions. Using the membrane fractions, complex binding experiments were conducted. […] The reaction was conducted at 25° C. for 1 hour, and bound ligands were separated from free ligands by filtration through a filter. […] The amount of bound ligands was measured with a γ-counter.
# [13] = target: T2, rat PACAP receptor protein Type I-B …; experiment: competition with 100 pM [125I]-PACAP27, membrane fraction of pRPR4-B-introduced CHO cells (FIG. 40B)
# Experimental: as §1
molecule,measurement,setting,value
[^125I]-PACAP27,Kd,[1],0.029 nM and 0.03 nM
B1,Specific activity,[2],16000 pmol/mg
same,Total activity (maximum binding of [125I]PACAP27),[2],671 pmol
same,Total activity (maximum binding of [125I]PACAP27),[3],1720 pmol
same,binding result,[4],binds
same,binding result,[5],binds
same,Specific activity,[6],9.9 pmol/mg
same,Total activity (maximum binding of [125I]PACAP27),[6],4700 pmol
same,Specific activity,[7],25 pmol/mg
same,Total activity (maximum binding of [125I]PACAP27),[7],3350 pmol
same,Specific activity,[8],1.3 pmol/mg
same,Total activity (maximum binding of [125I]PACAP27),[8],8120 pmol
same,Total activity (maximum binding of [125I]PACAP27),[9],2040 pmol
same,Kd,[10],0.103 nM
same,Specific activity,[11],1.9 pmol/mg
same,Total activity (maximum binding of [125I]PACAP27),[11],4560 pmol
B2,binding result,[12],binds
same,binding result,[13],binds
